Measurements taken from US20230287094A1 (LUDWIG INSTITUTE FOR CANCER RESEARCH, published 2023).

T1: human TGF-β3 (human, UniProt P10600 301-412)
T1 sequence: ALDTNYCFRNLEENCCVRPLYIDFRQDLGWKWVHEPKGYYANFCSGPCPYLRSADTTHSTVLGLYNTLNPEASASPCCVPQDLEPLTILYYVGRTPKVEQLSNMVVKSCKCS

T2: human TGF-β2 (human, UniProt P61812 303-414)
T2 construct: also called TGF-ß2
T2 sequence (looked up): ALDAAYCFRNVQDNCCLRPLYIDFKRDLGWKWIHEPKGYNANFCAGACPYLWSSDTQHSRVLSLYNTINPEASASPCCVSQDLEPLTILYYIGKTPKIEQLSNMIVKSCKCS


Tests used:
human TGF-β3 = biological target: T1, human TGF-β3; test: cell-based or functional assay
human TGF-β1 = human TGF-β1 (human, UniProt P01137 279-390); test: cell-based or functional assay
human TGF-β1, sequence (P01137 279-390 limits assumed): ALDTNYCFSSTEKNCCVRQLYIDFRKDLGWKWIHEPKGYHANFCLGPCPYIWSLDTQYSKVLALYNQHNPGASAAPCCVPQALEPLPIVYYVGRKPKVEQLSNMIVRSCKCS

human TGF-β2 [1] = biological target: T2, human TGF-β2; test: cell-based or functional assay
human TGF-β2 [2] = biological target: T2, human TGF-β2; test: assay not named
Protocol: Mink lung epithelial cell line (TMLECs) were stably transfected with a truncated PAI-1 promoter fused to the firefly luciferase reporter gene. 500 pg/ml human TGF-ß3 was incubated with serial dilutions of isolated TGF-β3 antibody for 4 h at 37° C. before transfer to an equal volume of culture medium (DMEM + 10 % FCS) where 50,000 TMLEC cells had been seeded 1 - 4 h earlier. After a further 24 h incubation, luciferase activity was measured with the BRITELITE kit from Perkin-Elmer and luminescence was measured in a TOPCOUNT NXT from Perkin Elmer.
Antibody ranging from 10 to 0 µg/ml were incubated with 500 pg/ml of the different TGF-β isoforms and TMLEC cells for 24 hours.

Binder | IC 50 (ng/ml), TMLEC PAI-1 promoter luciferase assay (human TGF-β3) [ng/mL] | IC 50 (ng/ml), TMLEC PAI-1 promoter luciferase assay (human TGF-β1) [ng/mL] | IC 50 (ng/ml), TMLEC PAI-1 promoter luciferase assay (human TGF-β2 [1]) [ng/mL] | binding result (human TGF-β2 [2])
1D11 mouse monoclonal anti-TGF-ß antibody (antibody, from another filing, V domains shown) VH: QVQLQQSGPELVRPGASVKLSCKASGYIFITYWMNWVKQRPGQGLEWIGQIFPASGSTNYNEMFEGKATLTVDTSSSTAYMQLSSLTSEDSAVYYCARGDGNYALDAMDYWGQGTSVTVSS VL: DIVLTQSPASLAVSLGQRATISCRASESVDSYGNSFMHWYQQKSGQPPKLLIYLASNLESGVPARFSGSGSRTDFTLTIDPVEADDAATYYCQQNNEDPLTFGAGTKLEIK | 6.5 | 72 | 53.7 | –
MTGF-β3-1719/13 (antibody, IgG2a, V domains shown, also called TGF-ß3-17) VH: QVQLQQPGAELVKPGASVKMSCKASGYIFTSYWITWVKQRPGQGLEWIGDIFPGTGSTNYNEKFKTKASLTVDTSSSTANMQLSSLTSEDSAVYSCARKLGPNYAVDYWGQGTSVTVSS VL: DVVMTQTPLSLPVSLGDQASISCRSSQSLIHSHGNTYLHWYLQKPGQSPKLLIYKLSNRFSGVPDRFSGSGSGTDFTLKISRVEAEDLGVYFCSQSTHVPFTFGSGTKLEIK | 79 | 263 | – | binds
MTGF-β3-1901/16 (antibody, IgG1, V domains shown) VH: QVLLQQSGPELVKPGASVKISCKASGYAFSSSWIHWVKQRPGKGLEWIGRIYPGDGDTNYTGKFKGKATLTADKSSSTAYMQLSSLTSEDSAVYFCARRMITTQAAMDYWGQGTSVTVSS VL: SFVMTQTPKFLLVSAGDRVTITCKASQSVINAVAWYQQKPGQSPKLLIYYASNRYTGVPDRFTGNGYGTDFTFTISTVQAEDLAVYFCQQDYSSPYTFGGGTKLEIK | 25 | – | – | –
MTGF-β3-1679/2 (antibody, IgG2a, V domains shown) VH: QVLLQQSGPELVKPGASVKISCKASGYAFSSSWIHWVKQRPGKGLEWIGRIYPGDGDTNYTGKFKGKATLTADKSSSTAYMQLSSLTSEDSAVYFCARRMITTQAAMDYWGQGTSVTVSS VL: SFVMTQTPKFLLVSAGDRVTITCKASQSVINAVAWYQQKPGQSPKLLIYYASNRYTGVPDRFTGNGYGTDFTFTISTVQAEDLAVYFCQQDYSSPYTFGGGTKLEIK | 6 | – | – | –
MTGF-β3-9/8 (antibody, IgG2a, V domains shown) VH: QVLLQQSGPELVKPGASVKISCKASGYAFSSSWMHWVKQRPGKGLEWIGRIFPGDGDTIYNGNFKGKATLTADKSSSTAYMQLSSLTSEDSAVYFCARRMITTQAAMDYWGQGTSVTVSS VL: SIVMTQTPKFLLVSAGDRVTITCKASQSVINDVAWYQQKPGQSPKLLIYYASNRYTGVPDRFTGNGYGTDFTFTISTVQAEDLAVYFCQQDYSSPYTFGGGTKLEIK | 13 | – | – | –
MTGF-β3-1203/11 (antibody, IgG2b, V domains shown) VH: QVQLKQSGAELVKPGASVKISCKASGYTFTDYYINWVKQRPGQGLEWIGKIGPGTGRTYYNEKFKGKATLTADKSSSTAYMQLSSLTSEDSAVYFCAIYYGWGYAMDYWGQGTSVTVSS VL: DIVMTQSPSSLSVSAGEKVTMSCKSSQSLLNSGNQKNYLAWYQQKSGQPPKLLIYGASTRESGVPDRFTGSGSGTDFTLTISSVQAEDLAVYYCQNDHGFPLTFGAGTKLELK | 54 | – | – | –
